Values joined by “and” are separate entries in the source; they are usually repeats but may differ in a detail not shown here. Equal entries are not always repeated. Where two headings read alike, the source gives them in different places.
What was measured:
Test in all cases: cryo-EM structure
[1] = target: DUF4297 from Bacillus ap. HMH5848 (Bacillus ap. HMH5848)
[2] = target: DUF4297 from Bacillus ap. HMH5848 (Bacillus ap. HMH5848); remark: listed apart in the source
[3] = target: HerA from Bacillus ap. HMH5848 (Bacillus ap. HMH5848)
[4] = target: HerA from Bacillus ap. HMH5848 (Bacillus ap. HMH5848); remark: listed apart in the source

stoichiometry N [1]	stoichiometry N [2]	stoichiometry N [3]	stoichiometry N [4]	Substance
12 and 4 and 6	12	–	–	DUF4297 from Bacillus ap. HMH5848 (natural protein)
–	–	6	6	HerA from Bacillus ap. HMH5848 (enzyme)
